experiment: soluble fraction after stress (log2 fold change); higher = more stays soluble; pooled small domains, quantitative proteomics; conditions: stress: pH 4
Summary of the method: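 Custom libraries of small protein domains were pooled and exposed to pH 4. High-throughput quantitative proteomics then measured the log2 fold change in the amount of each domain still soluble, with higher values meaning more stayed soluble. This soluble-fraction fold change stands for aggregation propensity.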

Row | Sequence | soluble fraction (log2)
1 | HMDDPITVAYRETEDAIAQVQREGFPVEMPPANSYIRRIQHELAGRFNLDSESYGDEPERRVRIRPQQ | -0.92
2 | HMEDLAERLDNLSTMYAKMDPVRAAQVLLESKNKSENIEVLKRLKPKSLGLILENMPPREAYDYVSELQ | 0.0298
3 | HMNNKVAVKSGYYFELFDKDEIPATLEKMKQKVKIDNIKYDLYQGTSLEDERKIDTMFGEKMGYSIDDYI | -0.527
4 | HMKLVAAGYHQNRLLVLLGIQAEELQAKRLLASFDRFRGREATPKPPIHDSARRWLRDTYHHVMNQVPVEL | -0.432
5 | HMSNENIDQDELQAIIQKVLASNQDAVAKYKAGKTAVIGFLIGQVMRQLNKKIDVALAKKTLLVFLEK | 0.0782
6 | HMQITSTDEIEKMIDELIAANPEQTKQYQNGNHKVAGWFVGQMMKASKGKANPQMVNNLLQKKL | 0.166
7 | HMKYKKYKLLKDLPTFKAGQLAYISKTGNLIAGTPENQKTTETGLIIMIYHETTLKKFPNILTEWFEEIE | -1.17
8 | HMRPSGTAGILRYLSSGAIRGIGATTAQRLVSEFGEKTLDVMENEPERVAMLKGISKSKAEDFSLQLKQS | 0.0932
9 | HMDTSAHEVLSAIRSIIEDEDKRHPLSDEAITSRLSQQGYDIARRTVAKYRERLGLPVARLRRE | 0.376
10 | HMSSSLDQLTVREREILAQVSRGLSNKAIARELGISHDTVKLHVRHILSKLGFSSRVEAAVFAIEHRIG | -0.481
11 | HMAKPVNISAEPYHYDPTRFRVTFELPRLSDQPRKRIRKVAPAGLDREQALAWAKRLEREVLHELLR | -0.144
12 | HMSENEVQAKVKEIVDRYAGDKSALIAILQDVQDEYRYLPKEALVSIQQQMNIPLSRVYEVATFYDAFS | -0.862
13 | HMKALYNLDYEKPLSGSYYTETTARAAVPTDIRKLGLIITYKTDATTNITEQFVGSSISAWTTSGNWKSLG | 0.105
14 | HMSNRIDKIKLNHWLNIRKTSLDVLNNLLSKHLNHKINFENLENLDEQAIEKISEVLSIPKNKLLINDDVP | -0.226
15 | HMVTDTGEIEAIIDRVISENPDSVSDFKNGKERALKFLMGQAMKESKGKANPQIVNELLLKKL | 0.0343
16 | HMHDAKAEIIRLSALLTEYQRSYYIDGHSQVSDLEYDRLFDRLVALETSHPELREADSPTQRV | -1.14
17 | HMKVELSENEKIIYDLLSNQEVLLSEIKDKAELSNKAWDKSTKSLRKLGLVIVEKKDDNIYISKS | 0.368
18 | HMKIQISGSQRIDENVVVKVAGLSFPQSLLSLEPGQIESKLMQELPVQEVSVQRRLLPPGLDIQLVE | -0.246
19 | HMNFAERIKELRKEKGITQIDLAEAVGLSKGTVAMWEVDKREANFDTLNKLSDYFQVSIDYLLGRSNDRS | -0.206
20 | HMETPDLTQLNPILDEYRGQKGAVIPVLQKAQKIYGFLPPEVLRRIAAGMRVPLSKIYGVATFYSQFY | -0.0265
21 | HMIGIEALAGEIDRVRQVLTGGGGLSDVQLFSQLKALNEIKAALGASPDPRAPELVQRVDQLLEAAFRS | -1.1
22 | HMPFNREYWIEQLLKEVGLMGTPYAELDKHEVELDSPTGRASGFKVNAKTYVDQQLLFIENEYNNQPE | -0.899
23 | HMDGDVAVKGGDGVLEVRLANAANVRVYNLAGRLMADYTGTELHMPLPKGVYMVVAGDNRTKVVV | -0.00794
24 | HMPSGRIRWFDAKKGYGFIAGDDGKDVFLPQTALPQGVRNPRKGAKVEYSVIEGNRGQVAMGVTMV | 0.0307
25 | HMTDDALIGKTAQVTVAIKPGSVGQITARVGDERVERLARASADAEIAAGSLVTIKSIAGDSVIVAPE | 0.22
26 | HMQWLDSIRSRLRVGQTISYFEPRENASSSGLIIELRRKRVLVLEIATQKRWLIEYAAINVDG | -0.325
27 | HMFLTPLEETRLAIEEVVIAKNIAIDLFPRESAIRKQQHELIYHYHLKGLTVGTEKNKRLRIFPRGY | -0.52
28 | HMTHEAEDLNALRMMVRDPIFSSDEPDLQQLRGAVAHAPQFVDRFKELYNDYQRLAEFVQNSL | -1

Row | Sequence | soluble fraction (log2)
29 | HMKTMAVYPVGTRVLTSDGEIGVVEKQNSEAPERPVIKILKGADGHDYEKPDFKDLMKILTLFIVDTI | 0.0457
30 | HMKGEKVTKIELSNFIKFLINDLENKGFFNPPEKKDSMIDNIYSIYNKMTLTKKELNMLWGMHKKLK | -0.676
31 | HMSKEIQNILASLPSVDVLLKQIDPIYPHGKAKEATQQVVARLRESVVDGTRKTVIDQKEVIAMIHKQLEE | -0.149
32 | HMLDYQLQVFKDTLEANRKHRGQKIVFIHGKGEGVLRRALIHALNYQYKKFTYQDASFREYGYGATQVTI | -0.0148
33 | HMKTMSLSSIEKAIYKTKYENEPTSQRLSRIESSVFGTNFSQDSESERIARISSAINAQKSAK | 0.22
34 | HMSVFTPLTRSELETFLAPYELGRLLDFQGIAAGSENTNYFISLEKGEYVLTLVERGPVAEMPFFIELLD | -1.49
35 | HMTVTLTTLRNGSTGAQVKTLQRLLSAMDYYNGETDGKFGISTAAAVKAFQRAKRLTVDGIVGKNTWTALL | -0.0337
36 | HMKNTIPVPHIIGLSEQEARETLERAGLQLNVIKTEPNTKYESGQVTDTNPNEGIKVPKGTIVNVVLADS | -0.0342
37 | HMGNIKVPSVMGMTLEGAEKVAKDNGAVIEVLEYKESTEEDGTIIEQSPKADMTVATLEKISVVISGK | 0.0995
38 | HMKVSRTAVKLHHANAVEVAKKLQPLFVVGDVQIEPVKDAGIILLKGPASTLADLRESIVQMDHTA | -0.309
39 | HMKHEFSEEWLDWIKSNIADGQNKNGLFKVLLNHGYAYDAVREVMQYEPTVPLDELVDPLRA | -0.953
40 | HMTIPNGTVVNGTVLEAREAGAYLVRVAGQTLTAQANLPLLVGQHFRAVWDSSGDIPVLRLSDAEQALLGK | -0.121
41 | HMLKPQQTQRIYAMAARLGVLESGNKNDMLHTIVYRLTQKESIRSLNENEYKTVVSELAERLKL | -0.917
42 | HMTIKNHIDEILKKEPFILENIKNGLINISALARQIEPQLSRKVGKKLNVNAIIMTIKRMEIDQLNK | 0.0888
43 | HMEPDEESVRLKEEILSRIDYWHTTMPYMGTRKLAAKLRTEGYAVGRKLVRTYMREMGIHAVYP | -0.293
44 | HMNREYELTAEESGQRLDKYLAGEMTDLSRSRIKELVQAGEILVNGKKSKVSYKVQKDDLIQVIVLPLE | -0.0759
45 | HMGQLVVHQIKGEASRLDKFLVVNIPKYSRSVWREMINNGSVQVNGRVVKPHLLVKEGDIITWSS | 0.0267
46 | HMSETVYQYVARQLRDMLGSGEIPVGQQLPTYRELAKRFQVSLSVIQRAMRQLKAEAVVSIAHGQGVKAVR | -0.176
47 | HMSVAVKAPLQGTVMKVNVKPGDTVTKGAPVAVIEALKMENDVPAPQDGVVASVDVKSGDSVKTDQVLLTL | -0.00426
48 | HMEGGLIMDRIEKGLQSGVMPDLRGLNLKDALYLLESYVQVQVIGSGGVIKQSIKTGDKFIMGSVIKLEL | 0.041
49 | HMSRAHTELEEKLLTMLEENDMTLPMRVISNIASRIEGIIIPEEKILEVLKKSYDRYREHQMD | -0.784
50 | HMGESEWIVKWRGEKRDEERLQESELVRDDPEHRISVVRPRDDVDASAWLNRWRKSRYVQYIQPNHRVTIS | 0.0349
51 | HMKSLLDQINGIGAIRKRALLNHFGSARAVESASLDEIKSVEGVEAKVAKKIYNFFHEYKNMLR | 0.0807
52 | HMHDRRSGKVKWYSDRKGYGFIDLDGGEVFIHRSALIAFGALRLQAEDIITITVRETDRGLVVDQLFGIER | -1.63
53 | HMAETLLWADAAQEGLNRIVAAQPILVRISAAKRLRDASEQAAKAAGVSTVEIGHVQHASESLQFGDA | -0.0823
54 | HMSKKIVLPAAITVKKFSETLDMPLGTVISELMKNGILATINERIDFETASIIAQDLGYEVSEEV | 0.0626
55 | HMGRHSPLSIEQKEQLKTEIVALQQQRGGGRVTAVNIAELIQQKFNVVYNPNSLYKLLKQIGMSWV | -0.311

Reference: the domain aggregation screens of Martell et al. (2025)
